From patent US20130345145A1, “ATIP3 AND BIOLOGICALLY ACTIVE FRAGMENTS THEREOF FOR USE IN THE TREATMENT OF CANCER” (INSTITUT NATIONAL DE LA SANTE ET DE LA RECHERCHE MEDICALE …, priority 2011, published 2013)

B1: D2N: domain of ATIP3BD, amino-acid positions 410-634 of SEQ ID NO: 1, expressed as GFP fusion (protein, listed as Homo sapiens)
chain: GLTWDANDMVISTDKTMCMSTPVLEPTKVTFSVSPIEATEKCKKVEKGNRGLKNIPDSKEAPVNLCKPSLGKSTIKTNTPIGCKVRKTEIISYPRPNFKNVKAKVMSRAVLQPKDAALSKVTPRPQQTSASSPSSVNSRQQTVLSRTPRSDLNADKKAEILINKTHKQQFNKLITSQAVHVTTHSKNASHRVPRTTSAVKSNQEDVDKASSSNSACETGSVSALF
modifications: GFP fusion; (1)..(409) acidic N-terminal region
B2: ATIP3a: microtubule-associated tumor suppressor 1 isoform 1, SEQ ID NO: 1 (protein, listed as Homo sapiens)
chain: MTDDNSDDKIEDELQTFFTSDKDGNTHAYNPKSPPTQNSSASSVNWNSANPDDMVVDYETDPAVVTGENISLSLQGVEVFGHEKSSSDFISKQVLDMHKDSICQCPALVGTEKPKYLQHSCHSLEAVEGQSVEPSLPFVWKPNDNLNCAGYCDALELNQTFDMTVDKVNCTFISHHAIGKSQSFHTAGSLPPTGRRSGSTSSLSYSTWTSSHSDKTHARETTYDRESFENPQVTPSEAQDMTYTAFSDVVMQSEVFVSDIGNQCACSSGKVTSEYTDGSQQRLVGEKETQALTPVSDGMEVPNDSALQEFFCLSHDESNSEPHSQSSYRHKEMGQNLRETVSYCLIDDECPLMVPAFDKSEAQVLNPEHKVTETEDTQMVSKGKDLGTQNHTSELILSSPPGQKVGSSFGLTWDANDMVISTDKTMCMSTPVLEPTKVTFSVSPIEATEKCKKVEKGNRGLKNIPDSKEAPVNLCKPSLGKSTIKTNTPIGCKVRKTEIISYPRPNFKNVKAKVMSRAVLQPKDAALSKVTPRPQQTSASSPSSVNSRQQTVLSRTPRSDLNADKKAEILINKTHKQQFNKLITSQAVHVTTHSKNASHRVPRTTSAVKSNQEDVDKASSSNSACETGSVSALFQKIKGILPVKMESAECLEMTYVPNIDRISPEKKGEKENGTSMEKQELKQEIMNETFEYGSLFLGSASKTTTTSGRNISKPDSCGLRQIAAPKAKVGPPVSCLRRNSDNRNPSADRAVSPQRIRRVSSSGKPTSLKTAQSSWVNLPRPLPKSKASLKSPALRRTGSTPSIASTHSELSTYSNNSGNAAVIKYEEKPPKPAFQNGSSGSFYLKPLVSRAHVHLMKTPPKGPSRKNLFTALNAVEKSRQKNPRSLCIQPQTAPDALPPEKTLELTQYKTKCENQSGFILQLKQLLACGNTKFEALTVVIQHLLSEREEALKQHKTLSQELVNLRGELVTASTTCEKLEKARNELQTVYEAFVQQHQAEKTERENRLKEFYTREYEKLRDTYIEEAEKYKMQLQEQFDNLNAAHETSKLEIEASHSEKLELLKKAYEASLSEIKKGHEIEKKSLEDLLSEKQESLEKQINDLKSENDALNEKLKSEEQKRRAREKANLKNPQIMYLEQELESLKAVLEIKNEKLHQQDIKLMKMEKLVDNNTALVDKLKRFQQENEELKARMDKHMAISRQLSTEQAVLQESLEKESKVNKRLSMENEELLWKLHNGDLCSPKRSPTSSAIPLQSPRNSGSFPSPSISPR
modifications: (1)..(409) acidic N-terminal region
B3: ATIP3b: microtubule-associated tumor suppressor 1 isoform 2, SEQ ID NO: 6 (protein, listed as Homo sapiens)
chain: MTDDNSDDKIEDELQTFFTSDKDGNTHAYNPKSPPTQNSSASSVNWNSANPDDMVVDYETDPAVVTGENISLSLQGVEVFGHEKSSSDFISKQVLDMHKDSICQCPALVGTEKPKYLQHSCHSLEAVEGQSVEPSLPFVWKPNDNLNCAGYCDALELNQTFDMTVDKVNCTFISHHAIGKSQSFHTAGSLPPTGRRSGSTSSLSYSTWTSSHSDKTHARETTYDRESFENPQVTPSEAQDMTYTAFSDVVMQSEVFVSDIGNQCACSSGKVTSEYTDGSQQRLVGEKETQALTPVSDGMEVPNDSALQEFFCLSHDESNSEPHSQSSYRHKEMGQNLRETVSYCLIDDECPLMVPAFDKSEAQVLNPEHKVTETEDTQMVSKGKDLGTQNHTSELILSSPPGQKVGSSFGLTWDANDMVISTDKTMCMSTPVLEPTKVTFSVSPIEATEKCKKVEKGNRGLKNIPDSKEAPVNLCKPSLGKSTIKTNTPIGCKVRKTEIISYPRPNFKNVKAKVMSRAVLQPKDAALSKVTPRPQQTSASSPSSVNSRQQTVLSRTPRSDLNADKKAEILINKTHKQQFNKLITSQAVHVTTHSKNASHRVPRTTSAVKSNQEDVDKASSSNSACETGSVSALFQKIKGILPVKMESAECLEMTYVPNIDRISPEKKGEKENGTSMEKQELKQEIMNETFEYGSLFLGSASKTTTTSGRNISKPDSCGLRQIAAPKAKVGPPVSCLRRNSDNRNPSADRAVSPQRIRRVSSSAGNAAVIKYEEKPPKPAFQNGSSGSFYLKPLVSRAHVHLMKTPPKGPSRKNLFTALNAVEKSRQKNPRSLCIQPQTAPDALPPEKTLELTQYKTKCENQSGFILQLKQLLACGNTKFEALTVVIQHLLSEREEALKQHKTLSQELVNLRGELVTASTTCEKLEKARNELQTVYEAFVQQHQAEKTERENRLKEFYTREYEKLRDTYIEEAEKYKMQLQEQFDNLNAAHETSKLEIEASHSEKLELLKKAYEASLSEIKKGHEIEKKSLEDLLSEKQESLEKQINDLKSENDALNEKLKSEEQKRRAREKANLKNPQIMYLEQELESLKAVLEIKNEKLHQQDIKLMKMEKLVDNNTALVDKLKRFQQENEELKARMDKHMAISRQLSTEQAVLQESLEKESKVNKRLSMENEELLWKLHNGDLCSPKRSPTSSAIPLQSPRNSGSFPSPSISPR
modifications: (1)..(409) acidic N-terminal region
B4: D2C: domain of ATIP3BD, amino-acid positions 705-874 of SEQ ID NO: 1, expressed as GFP fusion (protein, listed as Homo sapiens)
chain: TTSGRNISKPDSCGLRQIAAPKAKVGPPVSCLRRNSDNRNPSADRAVSPQRIRRVSSSGKPTSLKTAQSSWVNLPRPLPKSKASLKSPALRRTGSTPSIASTHSELSTYSNNSGNAAVIKYEEKPPKPAFQNGSSGSFYLKPLVSRAHVHLMKTPPKGPSRKNLFTALNA
modifications: GFP fusion; (1)..(409) acidic N-terminal region

Legend:
[1] = system: human breast cancer MCF-7 cells; test: Clonogenicity experiments; type: cell-based; details: for inhibitory effect on colony number relative to that of GFP-ATIP3: MCF7, FIG. 12; for cell proliferation / number of G418-resistant colonies: MCF-7 transfected with GFP fusion, G418 selection 3 weeks, compared to GFP
Procedure: For clonogenicity experiments, human breast cancer MCF-7 cells were transfected for 24 h with […] pEGFP-C1 vector or 2 μg of pEGFP-ATIP3BD cDNA. Similar transfection efficiency (50%) was assessed by FACS analysis and cell viability was verified using trypan blue. Cells were then plated at various dilutions in 12 well plates and transfectants were selected by adding geneticin (G418, 1 mg/ml, Gibco) in fresh medium twice a week for 3 weeks. Resistant colonies were stained with 0.5% crystal violet (Sigma) and counted.
The ability of human MCF7 breast cancer cells to form colonies following expression of minimal domains D2N and D2C was analyzed by clonogenicity experiments as described before (see example 2).

[2] = system: microtubule cytoskeleton; test: Immunofluorescence intracellular localization in RPE1 cells; type: cell-based, Human; details: RPE1 cells transfected 24 hrs, data not shown
Procedure: Immunofluorescence study was performed as example 2. Briefly, Human retinal pigment epithelial (RPE1) cells were transfected for 24 hrs with GFP-D2N, GFP-D2C or GFP-D2CC constructs prior to fixation in ice-cold methanol and incubation with anti-GFP antibodies as described (page 21, lines 1-9).

Row | Molecule | inhibitory effect on colony number relative to that of GFP-ATIP3 [1] [%] | cell proliferation / number of G418-resistant colonies [1] | intracellular localization [2]
1 | B1 | 71 | strongly reduces the number of G418-resistant colonies | associate with the microtubule cytoskeleton
2 | B2 |  | inhibit cell proliferation and reduce cancer cell growth | 
3 | B3 |  | inhibit cell proliferation and reduce cancer cell growth | 
4 | B4 | 78 | strongly reduces the number of G418-resistant colonies | associate with the microtubule cytoskeleton
